Experimental findings from FireProtDB (doi:10.1073/pnas.0911904107) are described below.

The conditions of the data set: Escherichia coli (strain K12), pH 8, 25 °C, Urea, CD, whole UniProt chain shown.
Setting [1] is: Sodium phosphate 50 mM, reversible: Yes.
Setting [2] is: sodium phosphate buffer, transition: 2, reversible: yes.

B1: Lipid A palmitoyltransferase PagP wild type, P37001 (protein)
chain: MNVSKYVAIFSFVFIQLISVGKVFANADEWMTTFRENIAQTWQQPEHYDLYIPAITWHARFAYDKEKTDRYNERPWGGGFGLSRWDEKGNWHGLYAMAFKDSWNKWEPIAGYGWESTWRPLADENFHLGLGFTAGVTARDNWNYIPLPVLLPLASVGYGPVTFQMTYIPGTYNNGNVYFAWMRFQF
For B1, under setting [1], the denaturant m value turned out to be 1.64 kcal/mol/M, the “denaturant midpoint (higher = more stable)” value is 8.77 M and the unfolding free energy amounted to 14.4 kcal/mol. For the same protein, under setting [2], the “denaturant midpoint (higher = more stable)” value stood at 8.77 M and the unfolding free energy is 14.4 kcal/mol.
